These results are taken from patent US20220144956A1 (published 2022).

Residue numbers refer to the chain shown, from its start.

B1: XENP36169 H1.186 L1 (antibody, V domains shown)
VH: QLQVQESGPGLVKPSETLSLTCTVSGGSISESYFSWGWIRQPPGKGLEWIGSFYYGGKTYYNPSLKSRATISIDTSKNQFSLKLSSVTAADTAVYYCARGPTTIRGVIDSWGQGTLVTVSS
VL: EIVLTQSPATLSLSPGERATLSCRASQSVRSYLAWYQQKPGQAPRLLIYDASNRATGIPARFSGSGSGTDFTLTISSLEPEDFAVYYCQQRSNWPPTFGQGTKVEIK
B2: XENP36184 H1.201 L1 (antibody, V domains shown)
VH: B1 VH with E31N, S32A, T103L
VL: B1 VL
B3: XENP36164 H1.181 L1 (antibody, V domains shown)
VH: B1 VH with E31N, T103M
VL: B1 VL
B4: XENP36175 H1.192 L1 (antibody, V domains shown)
VH: B1 VH with E31T, T103M
VL: B1 VL
B5: XENP36170 H1.187 L1 (antibody, V domains shown)
VH: B1 VH with T103V
VL: B1 VL
B6: XENP36185 H1.202 L1 (antibody, V domains shown)
VH: B1 VH with E31N, S32A
VL: B1 VL
B7: XENP36167 H1.184 L1 (antibody, V domains shown)
VH: B1 VH with T103M
VL: B1 VL
B8: XENP35107 H1.36 L1 (antibody, V domains shown)
VH: B1 VH with E31N, G37S, G57E, N78S, A98P, T103M
VL: B1 VL
B9: H1.54 L1 XENP34510 (antibody, V domains shown)
VH: B1 VH with E31N, Y55S, G57E, N78S, A98P, T103M
VL: B1 VL
B10: H1.42 L1 XENP34498 (antibody, V domains shown)
VH: B1 VH with E31N, S52N, G57E, N78S, A98P, T103M
VL: B1 VL
B11: H1.61 L1 XENP34517 (antibody, V domains shown)
VH: B1 VH with E31N, G57E, T59I, N78S, A98P, T103M
VL: B1 VL
B12: H1.56 L1 XENP34512 (antibody, V domains shown)
VH: B1 VH with E31N, N78S, A98P, T103M
VL: B1 VL
B13: H1.75 L1 XENP34531 (antibody, V domains shown)
VH: B1 VH with E31N, G57E, N78S, K83Q, A98P, T103M
VL: B1 VL
B14: H1.85 L1 XENP34541 (antibody, V domains shown)
VH: B1 VH with E31N, G57E, N78S, A98P, T103S
VL: B1 VL
B15: H1 L1.5 XENP34568 (antibody, V domains shown)
VH: B1 VH with E31N, G57E, N78S, A98P, T103M
VL: B1 VL with A19V
B16: H1 L1.4 XENP34567 (antibody, V domains shown)
VH: B1 VH with E31N, G57E, N78S, A98P, T103M
VL: B1 VL with L13V
B17: H1.78 L1 XENP34534 (antibody, V domains shown)
VH: B1 VH with E31N, G57E, N78S, T103M
VL: B1 VL
B18: H1.105 L1 XENP34561 (antibody, V domains shown)
VH: B1 VH with E31N, G57E, N78S, A98P, T103M, S110Y
VL: B1 VL
B19: H1 L1.3 XENP34566 (antibody, V domains shown)
VH: B1 VH with E31N, G57E, N78S, A98P, T103M
VL: B1 VL with A9P
B20: H1.107 L1 XENP34563 (antibody, V domains shown)
VH: B1 VH with E31N, G57E, N78S, A98P, T103M, L116T
VL: B1 VL
B21: H1.101 L1 XENP34557 (antibody, V domains shown)
VH: B1 VH with E31N, G57E, N78S, A98P, T103M, I108M
VL: B1 VL
B22: H1 L1.7 XENP34570 (antibody, V domains shown)
VH: B1 VH with E31N, G57E, N78S, A98P, T103M
VL: B1 VL with S28G
B23: H1.98 L1 XENP34554 (antibody, V domains shown)
VH: B1 VH with E31N, G57E, N78S, A98P, T103M, V107A
VL: B1 VL
B24: H1.87 L1 XENP34543 (antibody, V domains shown)
VH: B1 VH with E31N, G57E, N78S, A98P, T103Q
VL: B1 VL
B25: H1.77 L1 XENP34533 (antibody, V domains shown)
VH: B1 VH with E31N, G57E, N78S, A90V, A98P, T103M
VL: B1 VL
B26: H1 L1.6 XENP34569 (antibody, V domains shown)
VH: B1 VH with E31N, G57E, N78S, A98P, T103M
VL: B1 VL with R24G
B27: H1.82 L1 XENP34538 (antibody, V domains shown)
VH: B1 VH with E31N, G57E, N78S, A98P, T102S, T103M
VL: B1 VL
B28: H1.84 L1 XENP34540 (antibody, V domains shown)
VH: B1 VH with E31N, G57E, N78S, A98P, T103E
VL: B1 VL
B29: H1.95 L1 XENP34551 (antibody, V domains shown)
VH: B1 VH with E31N, G57E, N78S, A98P, T103M, R105K
VL: B1 VL
B30: H1.89 L1 XENP34545 (antibody, V domains shown)
VH: B1 VH with E31N, G57E, N78S, A98P, T103M, I104D
VL: B1 VL
B31: H1 L1.2 XENP34565 (antibody, V domains shown)
VH: B1 VH with E31N, G57E, N78S, A98P, T103M
VL: B1 VL with A9G
B32: H1.106 L1 XENP34562 (antibody, V domains shown)
VH: B1 VH with E31N, G57E, N78S, A98P, T103M, L116M
VL: B1 VL
B33: H1.99 L1 XENP34555 (antibody, V domains shown)
VH: B1 VH with E31N, G57E, N78S, A98P, T103M, V107S
VL: B1 VL
B34: H1.102 L1 XENP34558 (antibody, V domains shown)
VH: B1 VH with E31N, G57E, N78S, A98P, T103M, S110H
VL: B1 VL
B35: H1.104 L1 XENP34560 (antibody, V domains shown)
VH: B1 VH with E31N, G57E, N78S, A98P, T103M, S110V
VL: B1 VL
B36: H1.91 L1 XENP34547 (antibody, V domains shown)
VH: B1 VH with E31N, G57E, N78S, A98P, T103M, I104V
VL: B1 VL
B37: H1.81 L1 XENP34537 (antibody, V domains shown)
VH: B1 VH with E31N, G57E, N78S, A98P, T102N, T103M
VL: B1 VL
B38: H1.103 L1 XENP34559 (antibody, V domains shown)
VH: B1 VH with E31N, G57E, N78S, A98P, T103M, S110L
VL: B1 VL
B39: H1.100 L1 XENP34556 (antibody, V domains shown)
VH: B1 VH with E31N, G57E, N78S, A98P, T103M, I108F
VL: B1 VL
B40: H1 L1.1 XENP34564 (antibody, V domains shown)
VH: B1 VH with E31N, G57E, N78S, A98P, T103M
VL: B1 VL with L4M
B41: H1.86 L1 XENP34542 (antibody, V domains shown)
VH: B1 VH with E31N, G57E, N78S, A98P
VL: B1 VL
B42: H1.88 L1 XENP34544 (antibody, V domains shown)
VH: B1 VH with E31N, G57E, N78S, A98P, T103M, I104A
VL: B1 VL
B43: H1.90 L1 XENP34546 (antibody, V domains shown)
VH: B1 VH with E31N, G57E, N78S, A98P, T103M, I104N
VL: B1 VL
B44: H1.83 L1 XENP34539 (antibody, V domains shown)
VH: B1 VH with E31N, G57E, N78S, A98P, T103A
VL: B1 VL

The target in one assay is T1, human TGFßRII (antigen of the Octet experiments) (human, UniProt P37173 23-166).
T1 sequence (P37173 23-166): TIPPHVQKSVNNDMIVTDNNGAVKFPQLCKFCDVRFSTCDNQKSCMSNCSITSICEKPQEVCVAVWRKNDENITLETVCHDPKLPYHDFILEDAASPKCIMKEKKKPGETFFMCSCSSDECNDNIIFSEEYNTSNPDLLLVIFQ
Test: not given
As usually defined, the Kd is the concentration at which binding is half-saturated. Low values mean a tighter complex, high ones a looser complex. On to B1, for which the Kd worked out at 10.1 nM.

Consider B2, for which the Kd was determined as 5.27 nM.

On to B3, for which the Kd worked out at 2.29 nM.

B4 displayed a Kd of 4.38 nM.

Take B5: binding was characterised by a dissociation constant (Kd) of 9.08 nM.

Molecule B6 gave a Kd of 7.4 nM.

In the case of B7, the Kd turned out to be 4.34 nM.

For the molecule B8, the equilibrium dissociation constant (Kd) came out at 2.89 nM.

The target in a further assay is T1, human TGFßRII (antigen of the Octet …). As to the kind of experiment: BLI (Octet).
Molecule B9 displayed a Kd of 0.666 nM.

B10 came in with a Kd of 2.59 nM.

As to B11, binding was characterised by a dissociation constant (Kd) of 0.791 nM.

B12 yielded a Kd of 0.203 nM.

As to B13, the Kd is 1.18 nM.

For a further assay the target is unchanged. As to the kind of experiment: BLI (Octet). The source holds these as a separate data set.
On to B14, for which the Kd is 4 nM.

B15 came in with a Kd of 1.3 nM.

Turning to B16, the Kd was 0.601 nM.

As to B17, binding was put at a Kd of 0.699 nM.

In the case of B18, the affinity, expressed as Kd, was 0.455 nM.

For the molecule B19, the Kd worked out at 0.547 nM.

The molecule B20 showed a Kd of 0.109 nM.

As to B21, the Kd is 0.492 nM.

Molecule B22 showed a Kd of 0.315 nM.

Molecule B23 registered a Kd of 0.761 nM.

Take B24: the Kd is 1.58 nM.

B25 registered a Kd of 0.749 nM.

Molecule B26 had a dissociation constant Kd of 2.24 nM.

Turning to B27, the Kd stood at 2.41 nM.

B28 yielded a Kd of 4.16 nM.

The molecule B29 yielded a Kd of 2.34 nM.

Consider B30, for which the Kd came to 0.141 nM.

Regarding B31, the Kd is 0.361 nM.

B32 had a dissociation constant Kd of 0.624 nM.

The molecule B33 displayed a Kd of 0.431 nM.

Turning to B34, the affinity, expressed as Kd, was 0.139 nM.

B35 returned a Kd of 0.601 nM.

On to B36, for which the Kd came to 0.512 nM.

For the molecule B37, the dissociation constant (Kd) came out at 300 nM.

The molecule B38 showed an equilibrium dissociation constant (Kd) of 0.16 nM.

B39 displayed a Kd of 0.898 nM.

In turn, B40 displayed a Kd of 0.569 nM.

B41 had a Kd of 0.0662 nM.

B42: the dissociation constant (Kd) was 0.402 nM.

Molecule B43 displayed a Kd of 0.0747 nM.

For B44, binding was put at a Kd of 3.47 nM.
